Test [1] has as its target T1, myelin oligodendroglial glycoprotein (MOG) peptide on I-Ab (mouse).
T1 peptide: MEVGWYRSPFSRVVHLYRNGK
The test can be described thus: in vivo.

Test [2] deals with T1, myelin oligodendroglial glycoprotein …. The test is described as follows: cytokine release.

B1: 1MOG23 (TCR)
alpha TRAV12D-2*02 TRAJ18*01 CDR3: CALSDRGSALGRLHF
beta TRBV19*01 TRBJ2-3*01 CDR3: CASSIADSSAETLYF
For B1, the binding result in test [1] was “recognises”.

B2: 2MOG10 (TCR)
alpha TRAV14-2*01 TRAJ21*01 CDR3: CAAASRIYNVLYF
beta TRBV5*01 TRBJ2-5*01 CDR3: CASNGLGEEDTQYF
For B2, in test [2], the binding result is on record as “recognises”.

B3: 1MOG9 (TCR)
alpha TRAV12D-3*01 TRAJ17*01 CDR3: CALSAANSAGNKLTF
beta TRBV13-2*01 TRBJ2-4*01 CDR3: CASGDWGGEDTLYF
Turning to B3, the binding result in test [2] was “recognises”.

These data come from PMC2615687 (2008).
